The values below are quoted from earlier work in publication PMC3962485.

The data set has as its target Hsc70 (UniProt P11142).
Sequence of UniProt P11142 (P11142 2-646): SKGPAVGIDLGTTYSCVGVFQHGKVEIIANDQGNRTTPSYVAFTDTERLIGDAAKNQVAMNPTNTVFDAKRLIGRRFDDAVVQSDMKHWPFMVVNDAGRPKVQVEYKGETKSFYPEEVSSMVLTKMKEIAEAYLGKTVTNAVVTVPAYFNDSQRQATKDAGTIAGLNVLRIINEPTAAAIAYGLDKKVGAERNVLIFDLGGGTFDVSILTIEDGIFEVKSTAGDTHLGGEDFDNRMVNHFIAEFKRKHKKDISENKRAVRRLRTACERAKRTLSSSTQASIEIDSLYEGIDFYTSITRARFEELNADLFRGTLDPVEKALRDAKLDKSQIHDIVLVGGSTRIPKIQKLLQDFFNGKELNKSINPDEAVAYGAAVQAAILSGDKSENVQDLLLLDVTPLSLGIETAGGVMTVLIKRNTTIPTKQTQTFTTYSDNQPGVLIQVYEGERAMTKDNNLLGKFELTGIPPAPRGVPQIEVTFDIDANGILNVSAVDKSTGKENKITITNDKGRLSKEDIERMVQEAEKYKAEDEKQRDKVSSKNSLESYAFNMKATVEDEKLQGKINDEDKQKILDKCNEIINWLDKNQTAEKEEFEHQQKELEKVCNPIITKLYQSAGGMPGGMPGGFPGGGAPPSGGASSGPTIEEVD

In the case of Snl1-M (from UniProt P40548), the Kd is 5 µM.

A word on the Kd: it is the concentration at which binding is half-saturated.
